Four molecules from paper PMC11861591 can be followed below.

The target of this experiment is V5-LC3, Q9GZQ8. Briefly: co-immunoprecipitation (Flag IP), western blot band quantification. As to conditions: chain shown with the change; HEK293T cells expressing V5-LC3 and Flag-RhoC; n = 3; parent: est. 4.6; read off a plot; scale: relative IP LC3-II protein level. A general note: Immunoblotting shows a protein as a band on a membrane.

B1: Flag-tagged RhoC (wild type), P08134 F154A; L157A (protein)
chain: MAAIRKKLVIVGDGACGKTCLLIVFSKDQFPEVYVPTVFENYIADIEVDGKQVELALWDTAGQEDYDRLRPLSYPDTDVILMCFSIDSPDSLENIPEKWTPEVKHFCPNVPIILVGNKKDLRQDEHTRRELAKMKQEPVRSEEGRDMANRISAAGYAECSAKTKEGVREVFEMATRAGLQVRKNKRRRGCPIL
Turning to B1, the response was 1.2.

B2: Flag-tagged RhoC (wild type), P08134 Y66A; L69A (protein)
chain: MAAIRKKLVIVGDGACGKTCLLIVFSKDQFPEVYVPTVFENYIADIEVDGKQVELALWDTAGQEDADRARPLSYPDTDVILMCFSIDSPDSLENIPEKWTPEVKHFCPNVPIILVGNKKDLRQDEHTRRELAKMKQEPVRSEEGRDMANRISAFGYLECSAKTKEGVREVFEMATRAGLQVRKNKRRRGCPIL
Turning to B2, the response came to 2.1.

B3: Flag-tagged RhoC (wild type), P08134 F30A; V33A (protein)
chain: MAAIRKKLVIVGDGACGKTCLLIVFSKDQAPEAYVPTVFENYIADIEVDGKQVELALWDTAGQEDYDRLRPLSYPDTDVILMCFSIDSPDSLENIPEKWTPEVKHFCPNVPIILVGNKKDLRQDEHTRRELAKMKQEPVRSEEGRDMANRISAFGYLECSAKTKEGVREVFEMATRAGLQVRKNKRRRGCPIL
On to B3, for which the response is 4.7.

B4: Flag-tagged RhoC (wild type), P08134 Y66A; L69A; F154A; L157A (protein)
chain: MAAIRKKLVIVGDGACGKTCLLIVFSKDQFPEVYVPTVFENYIADIEVDGKQVELALWDTAGQEDADRARPLSYPDTDVILMCFSIDSPDSLENIPEKWTPEVKHFCPNVPIILVGNKKDLRQDEHTRRELAKMKQEPVRSEEGRDMANRISAAGYAECSAKTKEGVREVFEMATRAGLQVRKNKRRRGCPIL
Turning to B4, the response stood at 1.
